Test [1] has as its target T1, SARS-CoV-2 Wuhan-Hu-1 RBD (SARS-CoV-2, Wuhan-Hu-1 (GenBank …, UniProt P0DTC2)). In words: cell-based or functional assay.
Test [2] has as its target T1, SARS-CoV-2 Wuhan-Hu-1 RBD. In words: BLI. The note with it: both partners purified.

A value given as a limit tells only on which side of the number the result lay.

B1: JR209 (antibody, V domains shown)
VH: EVQLLESGGGLVQPGQSLRLYCAASGFTFSSHGMSWVRQAPGKGLEWVSSISSSGGRTYDADSVKGRFTISRDNSENTVYLQMNSLRVADTAVYYCVKENGPHRWSGEVHGMDVWGQGTTVTVSS
VL: QSVLTQPPSVSGAPGQRVTISCTGSSSNIGTGYDVHWYQHLPGTAPKLLIYDNNNRPSGVPDRFSGSKSATSASLAITGLQAEDEGDYYCQSYDTSLSGLAFGGGTKLTVL
As to B1, in test [1], the “neutralisation IC50, Wuhan-Hu-1 pseudovirus” value (“neutralisation IC50” for short) turned out to be 0.0901 µg/mL. For the same molecule, the binding result in test [2] is given as “binds”.

B2: JR312 (antibody, V domains shown)
VH: QVQLVQSGAEVKKPGSSVKVSCKASGAKPSGVSFSSYAFNWVRRAPGQGLEWVGGIIPIFGPANYAQKFQGRVTITADESTSTAYMELSSLSSEDTAIYYCARERYCNSPDCYSWERGDFDVWGQGTMVTVSS
VL: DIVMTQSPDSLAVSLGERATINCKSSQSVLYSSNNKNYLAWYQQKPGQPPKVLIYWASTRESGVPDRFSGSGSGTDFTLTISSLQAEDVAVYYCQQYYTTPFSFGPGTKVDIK
As for B2, the “neutralisation IC50” value in test [1] was 0.0271 µg/mL. For the same molecule, the binding result in test [2] was “binds”.

B3: JR050 (antibody, V domains shown)
VH: QVQLVQSGAEVKKPGASVKVSCKTSGDTFTNHYMHWVRQAPGQGLEWMGIINPSAGSTSYAQKFQGRVTMTRDTSTSTVYMELSSLRSEDTAVYYCARDIVFIPALDAFDIWGQGTMVTVSS
VL: EIVLTQSPATLSLSPGERATLSCRASQSVSSYLAWYQQKPGQAPRLLIYDTSNRATGIPARFSGSGSGTDFTLTISSLEPEDFAVYYCQQRRNWPPMYTFGQGTKLEIK
B3: the “neutralisation IC50” value in test [1] was greater than 1 µg/mL. In addition, the binding result in test [2] was “binds”.

B4: JR099 (antibody, V domains shown)
VH: EVQLVESGGGLVQPGGSLRLSCAASGFTFSDYDMHWVRQVRGKGLEWLSIIGTAGDTYYPDSVKGRFTISRENAKNSLYLQMNSLRVGDTGVYYCARDRASTSGTDGMDVWGQGTTVTVSS
VL: DIQLTQSPSSLSASVGDRVTITCRASQSISRYLNWYQQRPGKAPKLLIYAAFTLESGVPSRFSGSGSGTDFTLTISSLQAEDFATYHCQQSYSTSALTFGGGTKVEIK
Consider B4, for which the “neutralisation IC50” value in test [1] stood at 0.0463 µg/mL. In addition, the binding result in test [2] was “binds”.

B5: JR186 (antibody, V domains shown)
VH: EVQLLESGGGLIPPGGSLRLSCAASGFTFSSYAMSWVRQAPGKGLEWVSGISGSGTDTDEGDSVKGRFTISRDNSKNTLWLQIHTLRVEDTAIYYCAKASRGYVSNFDYFDRWGQGTLVTVSS
VL: SYELTQPPSVSVAPGETAKITCGGDNIGTKSVHWYLQKAGQAPVLVISDDSNRPSGIPERFSGSNSGNTATLTINRVEGGDEADYYCQVWTSFGAGTRVTVI
As for B5, in test [1], the “neutralisation IC50” value was found to be 0.0742 µg/mL. Moreover, the binding result in test [2] is given as “binds”.

B6: JR317 (antibody, V domains shown)
VH: QVQLVESGGGVVQPGKSLRLSCAASGFTFSSYGMHWVRQAPGKGLEWVAVIWYDGSNKYYADSVKGRFTISRDNSKSTLYVQMNSLRAEDTAVYYCARVRTIFRPLDYMDVWGKGTTVTVSS
VL: SYELTQPPSVSVAPGQTARITCGGNNIGSKSVHWYQQKPGQAPVLVVYDDSARPSGIPERFSGSNSGNAATLTISRVEAGDEADYYCQVWDRDYSSDHLWVFGGGTKLTVL
As to B6, the “neutralisation IC50” value in test [1] worked out at 0.0344 µg/mL. Moreover, in test [2], the binding result is “binds”.

B7: JR054 (antibody, V domains shown)
VH: QLQLQESGPRLMKPSETLSLTCSVSGGSISRSHYYWGWIRQPPGKGLEWIGSIYYNGSTYYNPSLRSRVTISVDTTKNQFSLKLSSVTAADTAEYYCARPGPSYYDRSGYNRAEYFQHWGQGTLVTVSS
VL: IRMTQSPSSLSASVGDRVTITCQASQDISNYLNWYQQKPGKAPKLLIYDASNLETGVPPRFSGSGSGTDFTFTISSLQPEDFATYSCQQYDNLPLTFGGGTKVEIK
As for B7, the “neutralisation IC50” value in test [1] stood at 0.0513 µg/mL. For the same molecule, the binding result in test [2] is “binds”.

B8: JR053 (antibody, V domains shown)
VH: QVQLVQSGAEVKKPGASVKVSCKASGYTFTSHYMHWVRQAPGQGLEWMGIINPSGGSTSHAQKFQGRVTLTSDTSTSTVYMELSSLRSEDTAVYYCARDLSFIPSIAWNCGYWGQGTLVTVSS
VL: QSALTQPASVSGSPGQSITISCTGTSSDVGGYNYVSWYQQHPGKAPKLMIYDVSDRPSGVSNRFSGSKSGNTASLTISGLQAEDEADYYCSSYTSSSSYVFGTGTKVTVL
Consider B8, for which the “neutralisation IC50” value in test [1] was greater than 1 µg/mL. In test [2], the binding result was “binds”.

B9: JR206 (antibody, V domains shown)
VH: EVQLVQSGAEVKKPGESLKISCKGSGFNFSRYWIGWVRQMPGKGLEWMGIIYLGDSDTTYSPSFQGQVTISADKSISTAYLQWSSLKASDTAMFYCATRSGYFYGYETWGQGTLVTVSS
VL: SYELTQPPSVSVAPGKTAKITCGGNNIGSKTVHWYQQRPGQAPVLVVYDNRDRPSGIPERFSGSNSGNTAALTISRVEAGDEADYYCQVWDSSSDHYVFGTGTKVTVL
As to B9, in test [1], the “neutralisation IC50” value stood at 0.137 µg/mL. The binding result in test [2] is on record as “binds”.

B10: JR057 (antibody, V domains shown)
VH: VQLVESGGGVVQPGRSLRLSCAASGFTFSSYAMHWVRQAPGKGLEWVALISYDGNNKYYADSVKGRFTVSRDNSKNTLFLQMNSLRAEDTAVYYCARDNEVSAAFDFWGQGTMVTVSS
VL: EIVLTQSPGTLSLSPGERATLSCRASQSLSSTYLAWYQHKPGQAPRLLIYAASSRATDIPDRFSGSGSGTDFTLTISRLEPEDFAVYYCQQYGGSPMCSFGQGTKLEIK
As to B10, the “neutralisation IC50” value in test [1] came out at 0.0142 µg/mL. Also, the binding result in test [2] is “binds”.

B11: JR189 (antibody, V domains shown)
VH: EVQLVESGGGLIQPGGSLRLSCAASGFNVNSNYINWVRQAPGKGLEWVSVIYSSGKTYFADSVKGRFTISRDNSKNTLYLQMNILRAEDTAVYYCATTTTVTPIWGQGTLVTVSS
VL: DIQMTQSPSALSASVGDRVTFTCRASQDIRNYLGWYQQKPGEAPKLLVYAASSLQSGVPSRFSGSGSGTDFTLTISSLQPEDFATYYCLQDYNYPWTFGQGTKVEIK
B11: the “neutralisation IC50” value in test [1] was determined as 0.0077 µg/mL. Further, the binding result in test [2] is on record as “binds”.

B12: JR316 (antibody, V domains shown)
VH: QVQLVQSGAEVKKPGSSVKVSCKASGGSFSTHGISWVRQAPGQGLEWMGGIIPISGRANYAQNFQGRVTITADESTKTAYMELSSLRSEDTAVYYCARDDRFCDTTKCYGLWFDPWGQGTLVTVSS
VL: DIQMTQSPSSLSASVGDRVTITCRASQSISTYLNWYQQKPGKAPKVLIYAASTLQSGVPSRFSGSGSGTDFTLTISSLQPEDFATYYCQQTYSSPRAFGQGTKVEIK
With B12, the “neutralisation IC50” value in test [1] came to 0.0108 µg/mL. Further, in test [2], the binding result is given as “binds”.

B13: JR060 (antibody, V domains shown)
VH: QVQLVQSGAEVKKPGASVRVSCKASGYTFNNYGIIWVRQAPGQGLEWVGWISAYNANTNYAQKLQGRVSMTTDTPTSTVYMELRSLRSDDTAVYYCASGLGAAGTEPPSDYWGQGTLVTVSS
VL: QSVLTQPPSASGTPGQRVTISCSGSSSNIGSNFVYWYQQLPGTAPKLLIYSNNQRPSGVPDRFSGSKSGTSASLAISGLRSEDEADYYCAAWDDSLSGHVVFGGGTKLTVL
For B13, the “neutralisation IC50” value in test [1] is greater than 1 µg/mL. For the same molecule, the binding result in test [2] was “binds”.

B14: JR052 (antibody, V domains shown)
VH: QVQLVQSGAEVKKPGASVKVSCEASGYTFTTYHMHWVRQAPGQGLEWMGIINPSRGSANYAQKFQGRVTMTRDTSTRTVYMELSSLRSEDTALYYCARDPNYYDSSGHKIEYFQHWGQGTLVTVSS
VL: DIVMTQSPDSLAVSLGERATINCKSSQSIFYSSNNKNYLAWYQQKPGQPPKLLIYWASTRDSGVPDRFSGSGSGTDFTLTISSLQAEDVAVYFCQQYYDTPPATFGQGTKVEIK
Consider B14, for which, in test [1], the “neutralisation IC50” value was determined as 0.0239 µg/mL. Besides, the binding result in test [2] was “binds”.

For the origin of these results see paper PMC9253517 (The Journal of Experimental Medicine, 2022).
